In paper PMC5932954, “Evaluation of Fluorine-18-Labeled α1(I)-N-Telopeptide Analogs as Substrate-Based Radiotracers for PET Imaging of Melanoma-Associated Lysyl Oxidase” (Frontiers in Chemistry, 2018):
Where a SMILES comes first, the peptide text is derived from it. [ ]: non-standard residue; d: D form. The star is where a group is joined. Benzoyl(4-F) = O=C(c1ccc(F)cc1)*; pGlu = O=C1CC[C@@H](C(=O)O)N1

How the values were obtained:
[1] = molecular target: T1, bovine type I atelocollagen (Bos taurus, UniProt P02453+P02465, DEL1103-1117); assay: SPR binding of telopeptide derivatives to immobilized atelocollagen; details: for Kd / kon / koff / ka2 / kd1 / kd2: SPR; for Kd / ka2 / kd1 / kd2: pH 7.4, 25°C; for Kd: calculated from the individual rate constants (Equation 1); for Kd / kon / koff: n = 5; for kon: calculated as koff/KD (Equation 3), read-out: kon (global association rate constant to final complex); for koff: calculated from the individual rate constants (Equation 2), read-out: koff (global dissociation rate constant of final complex); for ka1: SPR Biacore T100, CM5 chip, analyte 45 to 950 μM, HEPES buffer pH 7.4, 25°C; for ka1 / ka2 / kd1 / kd2: two-state reaction model, mean of n = 5
T1 construct: bovine type I atelocollagen (=pepsin-treated type I collagen; Matrix Bioscience); purchased Matrix Bioscience
T1 sequence (P02453 178-1191 limits assumed, stated change not applied): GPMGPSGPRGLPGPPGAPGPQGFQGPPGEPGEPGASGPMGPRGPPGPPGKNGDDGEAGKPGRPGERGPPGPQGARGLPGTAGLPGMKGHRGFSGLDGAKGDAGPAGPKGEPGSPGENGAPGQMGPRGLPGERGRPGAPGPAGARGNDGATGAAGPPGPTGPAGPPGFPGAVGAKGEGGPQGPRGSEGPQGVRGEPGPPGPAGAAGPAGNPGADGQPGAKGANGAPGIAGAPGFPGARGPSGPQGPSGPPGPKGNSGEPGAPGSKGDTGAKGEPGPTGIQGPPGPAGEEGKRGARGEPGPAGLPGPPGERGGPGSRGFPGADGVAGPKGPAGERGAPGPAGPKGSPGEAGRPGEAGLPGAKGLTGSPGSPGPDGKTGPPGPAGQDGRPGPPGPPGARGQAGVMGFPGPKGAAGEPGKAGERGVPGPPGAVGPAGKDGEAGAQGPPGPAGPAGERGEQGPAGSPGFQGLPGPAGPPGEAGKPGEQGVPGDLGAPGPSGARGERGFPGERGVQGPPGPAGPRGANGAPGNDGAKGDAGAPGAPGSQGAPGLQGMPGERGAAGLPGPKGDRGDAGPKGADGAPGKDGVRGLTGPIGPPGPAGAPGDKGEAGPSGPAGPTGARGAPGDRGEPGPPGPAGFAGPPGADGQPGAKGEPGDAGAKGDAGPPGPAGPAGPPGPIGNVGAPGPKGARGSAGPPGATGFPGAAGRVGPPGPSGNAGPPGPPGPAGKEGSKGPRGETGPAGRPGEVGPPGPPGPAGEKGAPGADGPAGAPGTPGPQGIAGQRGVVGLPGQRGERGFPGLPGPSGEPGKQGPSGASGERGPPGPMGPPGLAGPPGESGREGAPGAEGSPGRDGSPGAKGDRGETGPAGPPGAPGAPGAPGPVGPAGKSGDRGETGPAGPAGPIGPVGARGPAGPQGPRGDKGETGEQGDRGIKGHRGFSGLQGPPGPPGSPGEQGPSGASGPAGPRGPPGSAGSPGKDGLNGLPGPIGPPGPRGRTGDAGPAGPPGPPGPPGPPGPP
T1 sequence (P02465 89-1102 limits assumed, stated change not applied): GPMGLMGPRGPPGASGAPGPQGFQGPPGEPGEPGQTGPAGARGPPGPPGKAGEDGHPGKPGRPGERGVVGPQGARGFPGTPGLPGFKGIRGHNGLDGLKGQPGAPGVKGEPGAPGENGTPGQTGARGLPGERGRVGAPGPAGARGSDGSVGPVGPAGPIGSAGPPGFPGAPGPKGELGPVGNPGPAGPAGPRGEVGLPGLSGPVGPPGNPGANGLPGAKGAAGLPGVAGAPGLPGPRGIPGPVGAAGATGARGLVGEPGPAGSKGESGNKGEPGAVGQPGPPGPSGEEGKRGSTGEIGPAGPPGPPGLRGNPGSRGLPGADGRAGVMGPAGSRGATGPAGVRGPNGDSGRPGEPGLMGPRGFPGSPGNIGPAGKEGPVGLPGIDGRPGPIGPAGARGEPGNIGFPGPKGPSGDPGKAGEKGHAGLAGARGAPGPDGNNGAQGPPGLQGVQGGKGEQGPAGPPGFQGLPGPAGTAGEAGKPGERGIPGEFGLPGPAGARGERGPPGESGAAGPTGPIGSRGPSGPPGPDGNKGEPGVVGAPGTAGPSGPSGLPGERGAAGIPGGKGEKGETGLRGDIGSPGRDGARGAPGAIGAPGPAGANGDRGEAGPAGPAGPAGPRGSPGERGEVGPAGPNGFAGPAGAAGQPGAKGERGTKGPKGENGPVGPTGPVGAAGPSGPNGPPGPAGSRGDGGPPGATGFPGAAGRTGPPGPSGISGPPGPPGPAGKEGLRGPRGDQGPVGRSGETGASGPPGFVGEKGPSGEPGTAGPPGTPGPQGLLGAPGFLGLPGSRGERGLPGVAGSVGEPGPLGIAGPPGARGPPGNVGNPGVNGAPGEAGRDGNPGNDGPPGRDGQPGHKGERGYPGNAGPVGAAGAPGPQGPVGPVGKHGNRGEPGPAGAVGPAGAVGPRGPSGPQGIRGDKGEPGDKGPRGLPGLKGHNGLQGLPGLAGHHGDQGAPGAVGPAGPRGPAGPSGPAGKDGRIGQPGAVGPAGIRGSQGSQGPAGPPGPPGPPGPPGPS
Description: In order to probe binding of the telopeptide derivatives to atelocollagen surface plasmon resonance (SPR) measurements were performed on a T100 Biacore system (GE Healthcare) (Hoppmann et al., [2010]). In brief, bovine type I atelocollagen (=pepsin-treated type I collagen; Matrix Bioscience) was immobilized as ligand on a CM5 (carboxymethylated dextran polymer) sensor chip using EDC/NHS chemistry. About 12,000 arbitrary response (resonance) units (RU) were immobilized. Various concentrations of the analytes (1, 2, and 4a) ranging from 45 to 950 μM were analyzed. The flow buffer used was 10 mM HEPES, 3.0 mM EDTA-Na2, 0.15 M NaCl (pH 7.4) containing 0.05% surfactant P20. Association and dissociation of all analytes was followed in real-time and measured at 25°C at a flow rate of 30 μL/min. After each cycle, the surface was regenerated using 50 mM NaOH. The data were fitted to a two-state reaction model (see scheme below) including reference subtraction and blank buffer correction derived from blank runs using the Biacore Evaluation software 2.0.4.
The parameters KD, koff, and kon were calculated from the individual rate constants by the following equations (Tummino and Copeland, [2008]): […]

[2] = molecular target: bovine type I atelocollagen (pepsin-treated bovine type I collagen) (bovine); assay: SPR; Biacore T100; bovine type I atelocollagen immobilised on a CM5 chip by EDC/NHS (about 12,000 RU); peptides as analytes, 45 to 950 μM; 10 mM HEPES, 3.0 mM EDTA-Na2, 0.15 M NaCl, pH 7.4, 0.05% surfactant P20; 25°C; 30 μL/min; two-state reaction model; KD, koff and kon calculated from the individual rate constants; details: both partners purified

Row | Kd [1] [mM] | kon [1] [M⁻¹ s⁻¹] | koff [1] [s⁻¹] | ka1 [1] [M⁻¹ s⁻¹] | ka2 [1] [s⁻¹] | kd1 [1] [s⁻¹] | kd2 [1] [s⁻¹] | Kd [2] [µM] | ka1 (two-state model, step 1) [2] [M⁻¹ s⁻¹] | ka2 (two-state model, step 2) [2] [s⁻¹] | kd1 (two-state model, step 1) [2] [s⁻¹] | kd2 (two-state model, step 2) [2] [s⁻¹] | koff [2] [s⁻¹] | kon [2] [M⁻¹ s⁻¹] | Molecule
1 | 0.0788 | 11.2 | 0.000879 | – | – | – | – | – | – | – | – | – | – | – | CC[C@H](C)[C@H](NC(=O)CNC(=O)[C@@H](NC(=O)[C@H](CO)NC(=O)[C@H](CCCCN)NC(=O)[C@H](CCC(=O)O)NC(=O)[C@H](CC(=O)O)NC(=O)[C@H](Cc1ccc(O)cc1)NC(=O)CNC(=O)[C@H](Cc1ccc(O)cc1)NC(=O)[C@H](CO)NC(=O)[C@H](CC(C)C)NC(=O)c1ccc(F)cc1)[C@@H](C)O)C(=O)N[C@@H](CO)C(=O)N[C@H](C(=O)N1CCC[C@H]1C(N)=O)C(C)C [Peptide 2, FBz-LSYGYDEKSTGISVP-NH2] ({Benzoyl(4-F)}-LSYGYDEKSTGISVP-NH2)
2 | – | 6.15 | 0.00398 | 188 | 0.00494 | 0.268 | 0.00411 | – | – | – | – | – | – | – | NCCCC[C@H](NC(=O)[C@@H]1CCCN1C(=O)[C@H](CC(=O)O)NC(=O)CNC(=O)CNC(=O)CNC(=O)c1ccc(F)cc1)C(=O)NCC(=O)NCC(=O)NCC(=O)NCC(=O)NCC(N)=O [Peptide 4a, FBz-GGGDPKGGGGG-NH2] ({Benzoyl(4-F)}-GGGDPKGGGGG-NH2)
3 | 2.17 | 1.34 | 0.00291 | 123 | 0.00532 | 0.75 | 0.00294 | – | – | – | – | – | – | – | CC[C@H](C)[C@H](NC(=O)CNC(=O)[C@@H](NC(=O)[C@H](CO)NC(=O)[C@H](CCCCN)NC(=O)[C@H](CCC(=O)O)NC(=O)[C@H](CC(=O)O)NC(=O)[C@H](Cc1ccc(O)cc1)NC(=O)CNC(=O)[C@H](Cc1ccc(O)cc1)NC(=O)[C@H](CO)NC(=O)[C@H](CC(C)C)NC(=O)[C@@H]1CCC(=O)N1)[C@@H](C)O)C(=O)N[C@@H](CO)C(=O)N[C@H](C(=O)N1CCC[C@H]1C(N)=O)C(C)C [Peptide 1, pGlu-LSYGYDEKSTGISVP-NH2, reference compound] ([pGlu]LSYGYDEKSTGISVP-NH2)
4 | – | – | – | – | – | – | – | 2170 | 123 | 0.00532 | 0.75 | 0.00294 | 0.00291 | 1.34 | [pGlu]LSYGYDEKSTGISVP-NH2 (SMILES CC[C@H](C)[C@H](NC(=O)CNC(=O)[C@@H](NC(=O)[C@H](CO)NC(=O)[C@H](CCCCN)NC(=O)[C@H](CCC(=O)O)NC(=O)[C@H](CC(=O)O)NC(=O)[C@H](Cc1ccc(O)cc1)NC(=O)CNC(=O)[C@H](Cc1ccc(O)cc1)NC(=O)[C@H](CO)NC(=O)[C@H](CC(C)C)NC(=O)[C@@H]1CCC(=O)N1)[C@@H](C)O)C(=O)N[C@@H](CO)C(=O)N[C@H](C(=O)N1CCC[C@H]1C(N)=O)C(C)C, N-terminal telopeptide of the α1 chain of type I collagen; also called N-terminal telopeptide of the α1 chain of type I collagen; authentic isolated α1(I)-N-telopeptide; source: synthetic peptide (microwave-assisted Fmoc solid-phase synthesis)) [α1(I)-N-telopeptide (peptide 1), pGlu-LSYGYDEKSTGISVP-NH2]
5 | – | – | – | – | – | – | – | 647 | 188 | 0.00494 | 0.268 | 0.00411 | 0.00398 | 6.15 | {Benzoyl(4-F)}-GGGDPKGGGGG-NH2 (SMILES NCCCC[C@H](NC(=O)[C@@H]1CCCN1C(=O)[C@H](CC(=O)O)NC(=O)CNC(=O)CNC(=O)CNC(=O)c1ccc(F)cc1)C(=O)NCC(=O)NCC(=O)NCC(=O)NCC(=O)NCC(N)=O) [DPK-containing undecapeptide 4a, FBz-GGGDPKGGGGG-NH2]
6 | – | – | – | – | – | – | – | 78.8 | 57.4 | 0.0141 | 0.0631 | 0.00109 | 0.000879 | 11.2 | {Benzoyl(4-F)}-LSYGYDEKSTGISVP-NH2 (SMILES CC[C@H](C)[C@H](NC(=O)CNC(=O)[C@@H](NC(=O)[C@H](CO)NC(=O)[C@H](CCCCN)NC(=O)[C@H](CCC(=O)O)NC(=O)[C@H](CC(=O)O)NC(=O)[C@H](Cc1ccc(O)cc1)NC(=O)CNC(=O)[C@H](Cc1ccc(O)cc1)NC(=O)[C@H](CO)NC(=O)[C@H](CC(C)C)NC(=O)c1ccc(F)cc1)[C@@H](C)O)C(=O)N[C@@H](CO)C(=O)N[C@H](C(=O)N1CCC[C@H]1C(N)=O)C(C)C, N-terminal telopeptide of the α1 chain of type I collagen without its N-terminal pyroglutamate, which is replaced by a 4-fluorobenzoyl residue; source: synthetic peptide (microwave-assisted Fmoc solid-phase synthesis, as in Kuchar et al., 2012)) [4-fluorobenzoylated α1(I)-N-telopeptide analog (peptide 2), FBz-LSYGYDEKSTGISVP-NH2]
